Reference: US10918730B2, “Pegylated bioactive peptides and uses thereof” (GRIFFON PHARMACEUTICALS INC., priority 2016, dated 2021)
Each block holds one compound with its values, some of them ahead of it. Non-standard residues stand in square brackets, D forms with d. No end group written: not given here. hArg = N=C(N)NCCCC[C@H](N)C(=O)O; Orn = NCCC[C@H](N)C(=O)O

What was measured:
Growth Hormone secretion = assay: GH release kinetics after subcutaneous injection in Sprague-Dawley rats; assay type: in vivo; conditions: female rats, single subcutaneous dose 0.04 mg/kg, FIG. 1; for GH AUC (0-90 min): plasma GH by ELISA
From the text: Protocol: Sprague-Dawley rats (female, weighing from 250 to 300 g) were obtained from Charles River Inc. Animals were used according to a protocol of the Animal Care Committee along with the principles of the Guide for the Care and Use of Experimental Animals of the Canadian Council on Animal Care. The animals were maintained on standard laboratory chow under a 12:12 light:dark cycle. They were kept in groups of 4 rats per cage. The animals were anesthetized with isoflurane 2.5%. A mid-section opening was made in the neck to expose the carotid artery. The carotid artery was canulated with polypropylene tubing (PE-50) to allow blood withdrawal. After surgical preparation, rats received a subcutaneous injection of GHRH analog (10-100 μg/kg) dissolved in 20 mM AcONa+5% mannitol at pH 5). Blood samples (400 μL/time point) were collected from 2-4 animals per group. […] Blood was collected into microtainer tubes containing K3EDTA, mixed and immediately centrifuged at 13,000 RPM in a desktop centrifuge for 2 minutes. The plasma was collected and placed into a screw cap Eppendorf™ tube and quickly frozen in liquid nitrogen. The samples were then kept at −80° C. until assayed. Determination of GH levels was performed as described below.
Determination of GH levels in plasma samples: Rat and mouse plasma samples were vortexed carefully and centrifuged at 9,000 RPM for 2 min at 4° C. […] The remainder of the procedure was performed according to the manufacturers instructions, and the data obtained were analyzed using GraphPad Prism™ software. […] Growth hormone levels were determined in timed-aliquots of blood and are depicted in FIG. 1. […]
The N-terminal part of the GHRH peptide is known to be buried in the extracellular loops and transmembrane domains of the GHRH receptor, and thus almost all of the amino acids in the N-terminal domain participate in high affinity binding of the GHRH peptide to the receptor. […] Briefly, peptides (0.04 mg/kg) were subcutaneously injected in female rats and growth hormone levels were determined in timed aliquots of blood drawn from the animals.

human GHRH receptor = target: T1, human GHRH receptor (Homo sapiens, UniProt Q02643); assay: Hit Hunter (DiscoveRx) cAMP agonist assay in cells expressing GHRH receptor; assay type: cell-based; conditions: for potency in words: Table 2 experiment, compared to native peptide; for in vitro biological activity in words: longer PEG chains at the 9th position
T1 sequence (Q02643 23-423): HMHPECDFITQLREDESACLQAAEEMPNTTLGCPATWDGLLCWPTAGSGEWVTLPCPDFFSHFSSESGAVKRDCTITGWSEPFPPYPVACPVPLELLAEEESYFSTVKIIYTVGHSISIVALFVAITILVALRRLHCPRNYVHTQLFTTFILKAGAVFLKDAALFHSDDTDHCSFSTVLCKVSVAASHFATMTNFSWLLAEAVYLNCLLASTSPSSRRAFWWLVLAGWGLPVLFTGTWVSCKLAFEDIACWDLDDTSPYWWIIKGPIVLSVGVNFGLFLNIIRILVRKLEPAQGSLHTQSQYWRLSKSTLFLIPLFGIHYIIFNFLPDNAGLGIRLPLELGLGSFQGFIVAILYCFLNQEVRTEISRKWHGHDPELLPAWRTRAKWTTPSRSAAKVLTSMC
Protocol: For agonist determination, cells were incubated with sample to induce response. Media was aspirated from cells and replaced with 15 μL 2:1 HBSS/10 mM Hepes:cAMP XS+ Ab reagent. […] Vehicle concentration was 1%. […] Microplates were read following signal generation with a PerkinElmer Envision™ instrument for chemiluminescent signal detection. Compound activity was analyzed using CBIS data analysis suite (ChemInnovation, CA).

Compound: YaDAIFTAC(Peg-2K)YROVLAQLSAROALQDILSKN-NH2 (Y[dA]DAIFTAC(PEG 2 kDa)YR[Orn]VLAQLSAR[Orn]ALQDILSKN-NH2) [Analog 6 (C9), Cys9 conjugated to about 2 kDa PEG]
- GH AUC (0-90 min) (Growth Hormone secretion): 29075 ng/ml/90 min

Compound: YaDAIFTASYROVLAQLSAROALQDILC(Peg-2K)KN-NH2 (Y[dA]DAIFTASYR[Orn]VLAQLSAR[Orn]ALQDILC(PEG 2 kDa)KN-NH2) [Analog 1 (C28), GHRH analog with Cys28 conjugated to about 2 kDa PEG]
- stimulation of GH secretion in words (Growth Hormone secretion): potently stimulated GH secretion

Compound: YaDAIFTAC(Peg-2K)YROVLAQLSAROALQDILS(Har)-NH2 (Y[dA]DAIFTAC(PEG 2 kDa)YR[Orn]VLAQLSAR[Orn]ALQDILS[hArg]-NH2) [Analog 10 (C9), Cys9 conjugated to about 2 kDa PEG, Har29]
- fold more potent than the 5K and 40K Pegylated GHRH peptides (analogs 15 and 16) (human GHRH receptor; Table 3 experiment): 2-6 fold
- fold more potent than the native peptide (human GHRH receptor; Table 3 experiment): ~14 fold

Compound: CC[C@H](C)[C@H](NC(=O)[C@H](C)NC(=O)[C@H](CC(=O)O)NC(=O)[C@H](C)NC(=O)[C@@H](N)Cc1ccc(O)cc1)C(=O)N[C@@H](Cc1ccccc1)C(=O)N[C@H](C(=O)N[C@@H](CC(N)=O)C(=O)N[C@@H](CO)C(=O)N[C@@H](Cc1ccc(O)cc1)C(=O)N[C@@H](CCCNC(=N)N)C(=O)N[C@@H](CCCCN)C(=O)N[C@H](C(=O)N[C@@H](CC(C)C)C(=O)NCC(=O)N[C@@H](CCC(N)=O)C(=O)N[C@@H](CC(C)C)C(=O)N[C@@H](CO)C(=O)N[C@@H](C)C(=O)N[C@@H](CCCNC(=N)N)C(=O)N[C@@H](CCCCN)C(=O)N[C@@H](CC(C)C)C(=O)N[C@@H](CC(C)C)C(=O)N[C@@H](CCC(N)=O)C(=O)N[C@@H](CC(=O)O)C(=O)N[C@H](C(=O)N[C@@H](CCSC)C(=O)N[C@@H](CO)C(=O)N[C@@H](CCCNC(=N)N)C(N)=O)[C@@H](C)CC)C(C)C)[C@@H](C)O [GHRH1-29, reference compound]
- Max. response(%) (compared to baseline) (human GHRH receptor; Table 3, independent experiment): 112.97%

Compound: YaDAIFTAC(Peg-5K)YROVLAQLSAROALQDILS(Har)-NH2 (Y[dA]DAIFTACYR[Orn]VLAQLSAR[Orn]ALQDILS[hArg]-NH2; not fully specified (residue 9); printed as YaDAIFTAC(Peg-5K)YROVLAQLSAROALQDILS(Har)-NH2) [Analog 15 (C9), Cys9 conjugated to 5K PEG, Har29]
- in vitro biological activity in words (human GHRH receptor; Table 3 experiment): without loss of in vitro biological activity

Compound: YaDAIFTAC(Peg-40K)YROVLAQLSAROALQDILS(Har)-NH2 (Y[dA]DAIFTAC(PEG 40 kDa)YR[Orn]VLAQLSAR[Orn]ALQDILS[hArg]-NH2) [Analog 16 (C9), Cys9 conjugated to about 40 kDa PEG, Har29]
- in vitro biological activity in words (human GHRH receptor; Table 3 experiment): without loss of in vitro biological activity

Now from value to compound, other results behind:

- potency in words (human GHRH receptor): reduced potency
Compound: YaDAIFTC(Peg-2K)SYROVLAQLSAROALQDILSKN-NH2 (Y[dA]DAIFTC(PEG 2 kDa)SYR[Orn]VLAQLSAR[Orn]ALQDILSKN-NH2) [Analog 7 (C8), Cys8 conjugated to about 2 kDa PEG]
- GH AUC (0-90 min) (Growth Hormone secretion): 15657 ng/ml/90 min

- potency in words (human GHRH receptor): reduced potency
Compound: YaDAIFTASYROVLAQLSAROALQDC(Peg-2K)LSKN-NH2 (Y[dA]DAIFTASYR[Orn]VLAQLSAR[Orn]ALQDC(PEG 2 kDa)LSKN-NH2) [Analog 8 (C26), Cys26 conjugated to about 2 kDa PEG]

- potency in words (human GHRH receptor): reduced potency
Compound: YaDAIFTASYROVLAQLSC(Peg-2K)ROALQDILSKN-NH2 (Y[dA]DAIFTASYR[Orn]VLAQLSC(PEG 2 kDa)R[Orn]ALQDILSKN-NH2) [Analog 4 (C19), Cys19 conjugated to about 2 kDa PEG]

- potency in words (human GHRH receptor): reduced potency
Compound: YaDAIFTASYROVLC(Peg-2K)QLSAROALQDILSKN-NH2 (Y[dA]DAIFTASYR[Orn]VLC(PEG 2 kDa)QLSAR[Orn]ALQDILSKN-NH2) [Analog 5 (C15), Cys15 conjugated to about 2 kDa PEG]

- potency in words (human GHRH receptor): reduced potency
Compound: YaDAIFTASYROVLAC(Peg-2K)LSAROALQDILSKN-NH2 (Y[dA]DAIFTASYR[Orn]VLAC(PEG 2 kDa)LSAR[Orn]ALQDILSKN-NH2) [Analog 9 (C16), Cys16 conjugated to about 2 kDa PEG]
